Like-named read-outs stand apart in the source and are kept apart here.
What was measured:
[1] = target: T1, 人单核细胞白血病细胞(THP-1)表面LILRB4 (human, UniProt Q8NHJ6 22-448); assay: cell-based or functional assay
[2] = target: T1, 人单核细胞白血病细胞(THP-1)表面LILRB4; assay: cell-based or functional assay; remark: listed apart in the source

Row | IC50, inhibition of ARG1 secretion by THP-1 cells in the presence of ApoE (arginase activity kit) [1] [mg/L] | IC50, inhibition of ARG1 secretion by THP-1 cells in the presence of ApoE (arginase activity kit) [2] [mg/L] | Binder
1 | 23.9 | – | MA-Ⅰ 鼠源抗LILRB4单克隆抗体 (mouse IgG1/Cκ) (antibody) heavy: not shown light: DIVMTQTTLSLPVSPGDQASISCRSSQSLAHSNGNTYLHWYLQKPGQSPKLLIYKVSNRFSGVPDRFSGSGSGTDFTLKISRVEAEDLGVYFCSQSTLVPTFGGGTKLEIKADAAPTVSIFPPSSEQLTSGGASVVCFLNNFYPKDINVKWKIDGSERQNGVLNSWTDQDSKDSTYSMSSTLTLTKDEYERHNSYTCEATHKTSTSPIVKSFNRNEC
2 | – | 250 | 人源化抗LILRB4单克隆抗体HA-Ⅱ (human IgG1/Cκ) (antibody, V domains shown) VH: EVQLVESGGGLVKPGGSLRLSCAASGFTFSSYTMSWVRQAPGKGLEWVATISSGGTYTYYPDSVKGRFTISRDNAKNSLYLQMNSLRAEDTAVYYCARDGYDGFDYWGQGTTVTVSS VL: DIVMTQTPLSLSVTPGQPASISCRSSQSLAHSNGNTYLHWYLQKPGQSPQLLIYKVSNRFSGVPDRFSGSGSGTDFTLKISRVEAEDVGVYFCSQSTHVPTFGGGTKVEIKR
3 | – | 31.2 | 人源化抗LILRB4单克隆抗体HA-Ⅰ (human IgG1/Cκ) (antibody, V domains shown) VH: EVQLVESGGGLVKPGGSLRLSCAASGFTFSSYTMSWVRQAPGKGLEWVSTISSGGTYTYYPDSVKGRFTISRDNAKNSLYLQMNSLRAEDTAVYYCARDGYDGFDYWGQGTTVTVSS VL: DIVMTQTPLSLSVTPGQPASISCRSSQSLAHSNGNTYLHWYLQKPGQSPQLLIYKVSNRFSGVPDRFSGSGSGTDFTLKISRVEAEDVGVYYCSQSTHVPTFGGGTKVEIKR
4 | – | 98.5 | 人源化抗LILRB4单克隆抗体HA-Ⅲ (human IgG1/Cκ) (antibody, V domains shown) VH: EVQLVESGGGLVKPGGSLRLSCAASGFTFSSYTMSWVRQAPGKGLEWVATISSGGTYTYYPDSVKGRFTISRDNAKNSLYLQMNSLRAEDTAVYYCTRDGYDGFDYWGQGTTVTVSS VL: DIVMTQTPLSLSVTPGQPASISCRSSQSLAHSNGNTYLHWYLQKPGQSPKLLIYKVSNRFSGVPDRFSGSGSGTDFTLKISRVEAEDVGVYFCSQSTHVPTFGGGTKVEIKR
5 | 46 | – | MB-Ⅰ 鼠源抗LILRB4单克隆抗体 (mouse IgG1/Cκ) (antibody) heavy: QVQLQESGAELVKPGASVKLSCKASGYTFTNYWMHWVKQRPGQGLEWIGEINPSNGRTNYNEKFKTKATLTVDKSSSTAYMQLSSLTSEDSAVYYCARWGQLGLREGYYAVDYWGQGTSVTVSSAKTTPPSVYPLAPGSAAQTNSMVTLGCLVKGYFPEPVTVTWNSGSLSSGVHTFPAVLQSDLYTLSSSVTVPSSTWPSETVTCNVAHPASSTKVDKKIVPRDCGCKPCICTVPEVSSVFIFPPKPKDVLTITLTPKVTCVVVDISKDDPEVQFSWFVDDVEVHTAQTQPREEQFNSTFRSVSELPIMHQDWLNGKEFKCRVNSAAFPAPIEKTISKTKGRPKAPQVYTIPPPKEQMAKDKVSLTCMITDFFPEDITVEWQWNGQPAENYKNTQPIMDTDGSYFVYSKLNVQKSNWEAGNTFTCSVLHEGLHNHHTEKSLSHSPG light: DIVMTQSPSSLSASLGDRVTISCRASQDISNYLNWYQQKPDGTVKLLIYYTSRLHSGVPSRFSGSGSGTDYSLTISNLEQEDIATYFCQQGNTLPPTFGGGTKLEIKADAAPTVSIFPPSSEQLTSGGASVVCFLNNFYPKDINVKWKIDGSERQNGVLNSWTDQDSKDSTYSMSSTLTLTKDEYERHNSYTCEATHKTSTSPIVKSFNRNEC

Source: patent publication CN116203146A (BEIJING DONGFANG BIOTECH CO LTD, dated 2023)
